From US6808877B2, “Ligands for FPR class receptors that induce a host immune response to a pathogen or inhibit HIV infection” (priority 2000, dated 2004)
“Also recorded” adds a separate entry of the source.

T1: FPR (Homo sapiens, UniProt P21462)
T1 construct: H. Ali and R. Snyderman (Duke University); host or cells: RBL-2H3 rat basophilic leukemia cells
T1 sequence (P21462 1-350): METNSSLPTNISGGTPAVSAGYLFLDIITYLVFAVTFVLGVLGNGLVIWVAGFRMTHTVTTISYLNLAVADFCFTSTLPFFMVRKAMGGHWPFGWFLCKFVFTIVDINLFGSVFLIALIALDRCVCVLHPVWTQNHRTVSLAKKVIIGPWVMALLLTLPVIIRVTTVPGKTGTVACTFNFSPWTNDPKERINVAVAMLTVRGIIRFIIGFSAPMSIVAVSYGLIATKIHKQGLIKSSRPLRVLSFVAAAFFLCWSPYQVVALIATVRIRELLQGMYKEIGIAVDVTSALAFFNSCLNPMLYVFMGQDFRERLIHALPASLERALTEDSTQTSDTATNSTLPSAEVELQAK

T2: FPRL1 (Homo sapiens, UniProt P25090)
T2 construct: expressed in transfected cells; host or cells: HEK 293
T2 sequence (P25090 1-351): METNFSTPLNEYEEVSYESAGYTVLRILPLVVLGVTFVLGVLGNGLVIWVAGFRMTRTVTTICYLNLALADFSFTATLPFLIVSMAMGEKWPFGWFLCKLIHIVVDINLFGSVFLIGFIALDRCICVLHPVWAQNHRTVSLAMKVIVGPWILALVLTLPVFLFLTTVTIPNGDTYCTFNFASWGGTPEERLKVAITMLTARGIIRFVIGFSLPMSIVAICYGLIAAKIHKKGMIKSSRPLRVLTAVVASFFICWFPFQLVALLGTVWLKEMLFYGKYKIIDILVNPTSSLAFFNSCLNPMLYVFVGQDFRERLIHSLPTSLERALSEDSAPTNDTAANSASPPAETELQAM

B1: MIP-1β: chemokine, CCR5 agonist (protein)
chain: APMGSDPPTACCFSYTARKLPRNFVVDYYETSSLCSQPAVVFQTKRSKQVCADPSESWVQEYVYDLELN
B2: RANTES: chemokine that activates multiple receptors including CCR5 (protein, UniProt P13501 24-91, looked up)
C-C motif chemokine 5: SPYSSDTTPCCFAYIARPLPRAHIKEYFYTSGKCSNPAVVFVTRKNRQVCANPEKKWVREYINSLEMS
B3: MIP-1α: chemokine that activates multiple receptors including CCR5 (protein, UniProt P10147 24-92, looked up)
C-C motif chemokine 3: SLAADTPTACCFSYTSRQIPQNFIADYFETSSQCSKPGVIFLTKRSRQVCADPSEEWVQKYVSDLELSA
B4: SAA: serum amyloid A, recombinant, purchased from Pepro Tech (protein, UniProt P0DJI8 19-122, looked up)
Serum amyloid A-1 protein: RSFFSFLGEAFDGARDMWRAYSDMREANYIGSDKYFHARGNYDAAKRGPGGAWAAEVITDARENIQRFFGHGAEDSLADQAANEWGRSGKDPNHFRPAGLPEKY

What was measured:
CCR5 [1] = assay: CCR5 serine phosphorylation in monocytes (anti-phosphoserine IP, anti-CCR5 immunoblot); format: cell-based, human; settings: for MIP-1β-induced CCR5 phosphorylation after preincubation with PKC inhibitor: then MIP-1β 1 min; for serine phosphorylation of CCR5 / time of maximal CCR5 phosphorylation: human monocytes; for serine phosphorylation of CCR5: 37° C.
Description: Monocytes were isolated by counter-flow elutriation from the peripheral blood of normal donors (NIH Clinical Center, Transfusion Medicine Department, Bethesda, Md.) and enriched for mononuclear cells by using counter-flow elutriation. The purity of the cell preparations was examined by morphology after cytospin, and was >90%. The cells were stimulated with different concentrations of chemokines for indicated time periods at 37° C. and lysed for 20 min on ice with periodic mixing in lysis buffer (1% Triton X-100, 20 mM, Tris-HCl pH 8.0, 137 mM NaCl, 15% glycerol, 5 mM EDTA) containing phosphatase and protease inhibitors (1 mM phenylmethylsulfonyl fluoride, 5 μg/ml aprotinin, 5 μg/ml leupeptin, 1 mM sodium orthovanadate, 1 mM EGTA). Cell lysates were precleared with 30 µl of washed Protein-A sepherose beads (Pharmacia Biotech. Piscataway, N.J.), 1 μg of polyclonal anti-phospho-serine antibody (Zymed Laboratory Inc. South San Francisco, Calif.) was added to 200 μg cell lysates diluted with 2×immunoprecipitation (IP) buffer (1×buffer contains 1%Triton X-100, 10 mM Tris-HCl pH 7.4, 137 mM NaCl, 1 mM EDTA, 1 mM EGTA, 0.2 mM sodium orthovanadate, 0.2 mM PMSF, 0.5% NP-40). The reaction mixture was incubated at 4° C. overnight under constant rocking. The immune complex was captured by adding 50 μl of washed Protein-A sepharose beads (25 μl packed beads) and incubation of the reaction mixture at 4° C. for additional 2 hours. The beads were spun down (10 seconds at 14,000 rpm), the pellets were washed 3 times with ice-cold IP buffer, resuspended in 30 μl of 2×Laemmli sample buffer (126 mM Tris-HCl, 20% Glycerol, 4% SDS, 0.005% bromophenol blue with or without addition of 1% 2-mercaptoethanol, Novex, San Diego, Calif.) and boiled for 5 min to elute the immune complex. After electrophoresis on 4-12% SDS-PAGE precast gel (Novex), the proteins were transferred to Immobilon P membranes (Millipore, Bedford, Mass.). The membranes were blocked in freshly prepared PBS containing 3% dry milk 2 h, then were incubated with 1 μg/ml of polyclonal anti-CCR5 antibody (Millenium Biotechnology, Ramona, Calif.) overnight at 4° C. followed by washing 3 times with PBS containing 0.05% Tween 20. The membranes were incubated with a horse radish-peroxidase conjugated goat anti-rabbit IgG (1:5000) (Sigma, St. Louis, Mo.) in PBS containing 3% dry milk for 1 hour at room temperature with agitation. After washing 3 times with PBS-0.05% Tween 20, the membranes were incubated with Super Signal Chemiluminescent Substrate Stable Peroxide Solution (Pierce, Rockford, Ill.) for 1 min, and exposed to BIOMAX-MR film (Eastman Kodak Company, Rochester, N.Y.).
Monocytes stimulated with different concentrations of stimulants for indicated time periods at 37° C. were lysed for 20 min on ice with periodic mixing in lysis buffer [1% Triton X-100, 20 mM Tris-HCl (pH 8.0), 137 mM NaCl, 15% glycerol, 5 mM EDTA] containing phosphatase and protease inhibitors (1 mM phenylmethylsulfonyl fluoride, 5 μg/ml aprotinin, 5 μg/ml leupeptin, 1 mM sodium orthovanadate, 1 mM EGTA). Cell lysates were precleaned with 30 μl of washed Protein A Sepharose beads (15 μl packed beads) at 4° C. for 1 hour and 1 μg of polyclonal anti-phosphoserine antibody was added to 200 μg cell lysates diluted with 2×immunoprecipitation (IP) buffer [1×: 1% Triton X-100, 10 mM Tris-HCl (pH 7.4), 137 mM NaCl, 1 mM EDTA, 1 mM EGTA, 0.2 mM […], 0.2 mM PMSF, 0.5% NP-40]. The reaction mixture was incubated at 4° C. overnight under constant rocking. The immunecomplex was captured by adding 50 μl of washed Protein A sepharose beads (25 μl packed beads) and incubating the reaction mixture at 4° C. for an additional 2 hours. […]

monocytes [2] = assay: Ca2+ mobilization of monocytes in response to chemokines after preincubation (heterologous desensitization); format: cell-based, human; settings: staurosporine 2.5 ng/ml 30 min
Description: Calcium mobilization was measured by incubating monocytes (2×10^7/ml) in loading medium (DMEM, 10% FCS) with 5 μM Fura-2 AM (Molecular Probes, Eugene, Oreg.) for 30 min at room temperature in the dark. The dye-loaded cells were washed 3 times and resuspended in saline buffer (138 mM NaCl, 6 mM KCl, 1 mM CaCl2, 10 mM Hepes pH 7.4, 5 mM glucose, 0.1% BSA). The cells were then transferred into quartz cuvettes (2×10^6 cells in 2 ml) which were placed in a luminescence spectrometer (LS-50B, Perkin-Elmer, Beaconsfield, UK). Stimulants at different concentrations were added in a volume of 20 μl to each cuvette at the indicated time points. The ratio of fluorescence at 340 and 380 nm was calculated using a FL-WinLab program (Perkin Elmer). To examine the effect of fMLP, monocytes were preincubated with 10^−6 M fMLP or with medium alone for 60 min at 37° C. The cells were thoroughly washed and then were stained with Fura-2 for the calcium mobilization desensitization. The results are representative of at least three experiments performed.
(§1) Calcium mobilization was measured by incubating 2×10^7/ml cells in loading medium (DMEM, 10% FBS) with 5 μM Fura-2 AM (Molecular Probes, Eugene, Oreg.) for 30 min at room temperature in the dark. The dye-loaded cells were washed 3 times with loading medium and resuspended in saline buffer [138 mM NaCl, 6 mM KCl, 1 mM CaCl2, 10 mM HEPES (pH 7.4), 5 mM Glucose, 0.1% BSA] at a concentration of 1×10^6/ml. The cells were then transferred into quartz cuvettes (2 ml) which were placed in a luminescence spectrometer (LS-50B, Perkin-Elmer, Beaconsfield, England). Stimulants at different concentrations were added in a volume of 20 μl to each cuvette at the indicated time points. The ratio of fluorescence at 340 and 380 nm wavelength was calculated using a FL WinLab program (Perkin-Elmer).

monocytes [3] = assay: Ca2+ mobilization in monocytes (Fura-2); format: cell-based, human
Description: as §1
Calcium mobilization was assayed by incubating 2×10^7/ml of monocytes, neutrophils, FPRL1 or FPR transfectants in loading buffer containing 138 mM NaCl, 6 mM KCl, 1 mM CaCl2, 10 mM HEPES (pH 7.4), 5 mM glucose, 0.1% BSA with 5 μM Fura-2 (Sigma) at 37° C. for 30 min. The dye-loaded cells were washed and resuspended in fresh loading buffer. The cells were then transferred into quartz cuvettes (10^6 cells in 2 ml) which were placed in a luminescence spectrometer LS50 B (Perkin-Elmer Limited, Beaconsfield, England). Stimulants at different concentrations were added in a volume of 20 μl to the cuvettes at indicated time points. The ratio of fluorescence at 340 and 380 nm wavelength was calculated using the FL WinLab program (Perkin-Elmer).

monocytes [4] = assay: Monocyte chemotaxis, 48-well micro-chemotaxis chamber; format: cell-based, human; settings: 37° C., 30 min
FPR = biological target: T1, FPR; assay: Migration of ETFR cells; format: cell-based; settings: ETFR cells
FPRL1 = biological target: T2, FPRL1; format: cell-based; settings: FPRL1/293 cells; 100 ng/ml, 37° C., 30 min
CCR5 [5] = assay: Surface expression of CCR5 on monocytes by flow cytometry; format: cell-based, human; settings: FITC-anti-CCR5 2D7
Description: The change of surface expression of CCR5 on monocytes was monitored by FACS analyses (courtesy of L. […] The cells were then washed twice with DPBS containing 2% BSA and fixed with 1% Paraformaldehyde (Sigma). The fluorescence was measured by flow cytometer (Becton Dickinson, San Jose, Calif.). Results are presented as the percentage of cells stained with anti-CCR5 antibody.

CCR5 [6] = format: cell-based, human; settings: HOS/CD4/CCR5 cells co-expressing FPR

Molecule | Ca2+ mobilization (monocytes [3]) | serine phosphorylation of CCR5 (CCR5 [1]) | time of maximal CCR5 phosphorylation (CCR5 [1]) [min] | expression of CCR5 on the cell surface (CCR5 [5]) | other results
CN[C@@H]1C[C@H]2O[C@@](C)([C@@H]1OC)n1c3ccccc3c3c4c(c5c6ccccc6n2c5c31)C(=O)NC4 [staurosporine] | – | – | – | – | MIP-1β-induced CCR5 phosphorylation after preincubation with PKC inhibitor (CCR5 [1]; monocytes): did not affect; V3 peptide-induced CCR5 phosphorylation after pretreatment with PKC inhibitor (CCR5 [1]; monocytes, staurosporine 2.5 ng/ml 30 min, then V3 peptide 1.5 μM 60 min): no longer significantly induced phosphorylation of CCR5; Ca2+ mobilization in response to RANTES or SDF-1α after PKC inhibitor followed by V3 peptide (monocytes [2]): almost normal Ca^2+ mobilization
MCP-1: chemokine | significant Ca^2+ mobilization | – | – | – | –
SDF-1α | significant Ca^2+ mobilization | – | – | – | –
T20/DP178: synthetic peptide corresponding to a region in the C-terminus of the ectodomain of gp41 | – | significant and dose-dependent phosphorylation of CCR5 | – | – | –
calphostin C | – | – | – | – | MIP-1β-induced CCR5 phosphorylation after preincubation with PKC inhibitor (CCR5 [1]; monocytes): little effect; fMLP-induced CCR5 phosphorylation after preincubation with PKC inhibitor (CCR5 [1]; monocytes, calphostin C 50 ng/ml 2.5 h, then fMLP 10^−6 M 60 min): markedly reduced
pertussis toxin | – | – | – | – | chemotaxis response to V3 peptide after preincubation of the cells (monocytes [4]; human phagocytes, 100 ng/ml): inhibited; migration in response to W peptide after pretreatment of the cells (monocytes [4]; phagocytes, 100 ng/ml toxin): completely inhibited; W peptide induced migration after pretreatment of the cells (FPR): inhibited; W peptide induced migration after pretreatment of the cells (FPRL1): inhibited
B1 | poor inducer of Ca^2+ flux | rapidly phosphorylated | 1 | downregulated | –
B2 | induced a transient rise in Ca^2+; also recorded: significant Ca^2+ mobilization | rapidly phosphorylated | 1 | downregulated | –
B3 | induced a transient rise in Ca^2+ | rapidly phosphorylated | 1 | downregulated | phosphorylation of CCR5 (CCR5 [6]): induced an increase in phosphorylation of CCR5
B4 | – | significant and dose-dependent phosphorylation of CCR5 | – | – | –
